Experimental findings from the RNAGym collection of RNA variant scans (doi:10.1021/acssynbio.7b00057) are described below.

Sequences and labels used below:
B1: Pistol ribozyme (parent)
chain: GGGUCGUUGUUCCAUAAUCGCGUGGAUAUGGCACGCAAGUUUCUACCGGGCACCGUAAAUGUCCGACUGGAGCCGUUCGGGCGGCUAUAAACAGACCUCAGGCCCGAAGCGUGGCGGCACCUGCCGCCGGUGGUAAAAAAGAUCGGAAGAGCACACGUCU

In this series the parent is B1. As to the kind of experiment: aptazyme ON/OFF ratio, guanine; higher = stronger switching; co-transcriptional cleavage with and without guanine.
On to U7A G9A U11G C12G C13G, for which the “aptazyme ON/OFF ratio” value was 1.24.
For U7A G9A U11G C12G C13A the value was 1.17.
For U7A G9A U11G C12G C13U the value was 1.42.
For U7A G9A U11A C12A C13U the value was 1.44; for U7A G9A U11A C12A C13A, 1.22; for U7A G9A U11A C12A C13G, 1.16.
With U7A G9C U10A U11C C13A, the “aptazyme ON/OFF ratio” value is 1.01.
On to U7A G9A U10C U11C C12G C13U, for which the “aptazyme ON/OFF ratio” value amounted to 1.04.
For U7A G9A U10C U11C C12G C13G the value was 1.09.
For U7A G9A U10C U11C C12G C13A the value was 1.07.
For U7A G9A U10A U11C C13A the value was 1.02.
As for U7A G9A U10A U11C C13G, the “aptazyme ON/OFF ratio” value stood at 1.1.
To U7A G9A U10A U11C C13U belongs 1.06.
To U7A G9A U11G belongs 1.67; to U7A G9A U11A, 1.46; to U7A G9A U11C, 1.02.
For U7A G9A U10G C12U the value was 1.41; for U7A G9A U10G C12G, 1.21.
With U7A G9A U10G C12A, the “aptazyme ON/OFF ratio” value worked out at 1.13.
For the variant U7A G9A U10A C12U C13G, the “aptazyme ON/OFF ratio” value worked out at 1.11.
To U7A G9A U10A C12U C13A belongs 1.1.
For U7A G9A U10A C12U C13U the value was 1.2; for U7A G9A U10G U11G C12A, 1.06.
For the variant U7A G9A U10G U11G C12U, the “aptazyme ON/OFF ratio” value came out at 1.47.
For U7A G9A U10G U11G C12G the value was 1.38; for U7A G9A U10G U11A C13U, 1.06; for U7A G9A U10G U11A C13A, 1.09.
In the case of U7A G9A U10G U11A C13G, the “aptazyme ON/OFF ratio” value was determined as 1.03.
Consider U7A C12G C13G, for which the “aptazyme ON/OFF ratio” value stood at 1.26.
To U7A C12G C13A belongs 1.38; to U7A C12G C13U, 1.27.
To U7A C12A C13U belongs 1.22.
Turning to U7A C12A C13G, the “aptazyme ON/OFF ratio” value was determined as 1.2.
To U7A C12A C13A belongs 1.4; to U7A G9C U10A U11A C12A, 1.06; to U7A G9C U10A U11A C12G, 1.06.
U7A G9C U10A U11A C12U: the “aptazyme ON/OFF ratio” value worked out at 1.07.
For U7A G9C C13G the value was 1.06; for U7A G9C C13A, 1.02.
For U7A G9C C13U the value was 1.12.
For U7A G9A U11C C13U the value was 1.03; for U7A G9A U11C C13A, 1.07; for U7A G9A U11C C13G, 1.08.
In the case of U7A G9A U10C U11A C12A, the “aptazyme ON/OFF ratio” value was found to be 1.24.
In the case of U7A G9A U10C U11A C12U, the “aptazyme ON/OFF ratio” value is 1.31.
To U7A G9A U10C U11A C12G belongs 1.27.
To U7A G9A U10G U11G C12U C13G belongs 1.33; to U7A G9A U10G U11G C12U C13A, 1.17.
To U7A G9A U10G U11G C12U C13U belongs 1.26.
For U7A G9A U10A U11C, the “aptazyme ON/OFF ratio” value is 1.07.
As for U7A G9A U10A U11A, the “aptazyme ON/OFF ratio” value was determined as 1.34.
For U7A G9A U10A U11G the value was 1.3; for U7A G9A U10A U11G C12G C13G, 1.44.
With U7A G9A U10A U11G C12G C13U, the “aptazyme ON/OFF ratio” value came out at 1.25.
For U7A G9A U10A U11G C12G C13A, the “aptazyme ON/OFF ratio” value turned out to be 1.32.
For U7A G9A U10C U11G C12U C13A the value was 1.15; for U7A G9A U10C U11G C12U C13G, 1.21.
For U7A G9A U10C U11G C12U C13U the value was 1.3.
To U7A G9A C13G belongs 1.06; to U7A G9A C13U, 1.32.
As to U7A G9A C13A, the “aptazyme ON/OFF ratio” value is 1.24.
U7A G9A U10G C12A C13A: the “aptazyme ON/OFF ratio” value is 1.17.
For U7A G9A U10G C12A C13G the value was 1.15.
Turning to U7A G9A U10G C12A C13U, the “aptazyme ON/OFF ratio” value was 1.34.
To U7A G9A U11G C13U belongs 1.38; to U7A G9A U11G C13G, 1.12; to U7A G9A U11G C13A, 1.26.
For U7A G9C C12U C13U, the “aptazyme ON/OFF ratio” value came to 1.1.
Regarding U7A G9C C12U C13A, the “aptazyme ON/OFF ratio” value came to 1.05.
To U7A G9C C12U C13G belongs 1.07; to U7A G9C U10A C12A C13G, 1.09.
In the case of U7A G9C U10A C12A C13A, the “aptazyme ON/OFF ratio” value was found to be 1.14.
For U7A G9C U10A C12A C13U the value was 1.23; for U7A G9A U11A C12G, 1.23.
As for U7A G9A U11A C12A, the “aptazyme ON/OFF ratio” value was found to be 1.34.
For U7A G9A U11A C12U the value was 1.54.
In the case of U7A G9A U10C U11C C13G, the “aptazyme ON/OFF ratio” value was found to be 1.03.
To U7A G9A U10C U11C C13A belongs 0.975.
To U7A G9A U10C U11C C13U belongs 1.02; to U7A G9C U10A U11A C12G C13U, 1.1.
With U7A G9C U10A U11A C12G C13G, the “aptazyme ON/OFF ratio” value is 1.1.
U7A G9C U10A U11A C12G C13A: the “aptazyme ON/OFF ratio” value stood at 1.04.
Turning to U7A G9A U10C C13U, the “aptazyme ON/OFF ratio” value worked out at 1.12.
Turning to U7A G9A U10C C13G, the “aptazyme ON/OFF ratio” value is 1.06.
For U7A G9A U10C C13A the value was 1.06; for U7A G9A U10G U11G C13U, 1.09.
For U7A G9A U10G U11G C13G the value was 1.25.
For U7A G9A U10G U11G C13A, the “aptazyme ON/OFF ratio” value is 1.25.
For the variant U7A G9A U10C C12A C13G, the “aptazyme ON/OFF ratio” value is 1.22.
For U7A G9A U10C C12A C13U the value was 1.21.
To U7A G9A U10C C12A C13A belongs 1.13; to U7A G9A U10A U11A C13A, 1.15; to U7A G9A U10A U11A C13U, 1.21.
For U7A G9A U10A U11A C13G the value was 1.08.
Turning to U7A G9C U10A U11C C12U, the “aptazyme ON/OFF ratio” value came to 1.07.
Take U7A G9C U10A U11C C12G: the “aptazyme ON/OFF ratio” value was 1.21.
In the case of U7A G9C U10A U11C C12A, the “aptazyme ON/OFF ratio” value came out at 1.08.
For U7A G9A U10G U11C C12U C13U the value was 1.21.
To U7A G9A U10G U11C C12U C13G belongs 1.18; to U7A G9A U10G U11C C12U C13A, 1.2.
To U7A G9A U10C U11G C12A C13G belongs 1.24; to U7A G9A U10C U11G C12A C13U, 1.1.
U7A G9A U10C U11G C12A C13A: the “aptazyme ON/OFF ratio” value came out at 1.18.
On to U7A G9C U10A C12G, for which the “aptazyme ON/OFF ratio” value worked out at 1.13.
For U7A G9C U10A C12U the value was 1.14; for U7A G9C U10A C12A, 1.11; for U7A G9C U10A C13U, 1.18.
Consider U7A G9C U10A C13A, for which the “aptazyme ON/OFF ratio” value amounted to 1.16.
Regarding U7A G9C U10A C13G, the “aptazyme ON/OFF ratio” value came to 1.08.
For U7A G9A U10A U11C C12U C13A the value was 1.13; for U7A G9A U10A U11C C12U C13U, 1.15.
To U7A G9A U10A U11C C12U C13G belongs 1.18.
On to U7A G9C C12G C13A, for which the “aptazyme ON/OFF ratio” value amounted to 1.05.
For the variant U7A G9C C12G C13G, the “aptazyme ON/OFF ratio” value stood at 1.05.
Regarding U7A G9C C12G C13U, the “aptazyme ON/OFF ratio” value was 1.05.
As for U7A G9C U10A U11A C12A C13A, the “aptazyme ON/OFF ratio” value turned out to be 1.13.
As to U7A G9C U10A U11A C12A C13G, the “aptazyme ON/OFF ratio” value amounted to 1.07.
Consider U7A G9C U10A U11A C12A C13U, for which the “aptazyme ON/OFF ratio” value was 1.09.
Regarding U7A G9A U10G U11C C12G C13G, the “aptazyme ON/OFF ratio” value turned out to be 1.18.
Turning to U7A G9A U10G U11C C12G C13A, the “aptazyme ON/OFF ratio” value was determined as 1.27.
For U7A G9A U10G U11C C12G C13U the value was 1.1; for U7A C13U, 1.58; for U7A C13A, 1.47.
To U7A C13G belongs 1.11; to U7A G9A U10C U11C C12A C13U, 1.12.
On to U7A G9A U10C U11C C12A C13A, for which the “aptazyme ON/OFF ratio” value stood at 1.06.
Regarding U7A G9A U10C U11C C12A C13G, the “aptazyme ON/OFF ratio” value was determined as 1.08.
For U7A G9A U11C C12A the value was 1.18.
To U7A G9A U11C C12U belongs 1.17; to U7A G9A U11C C12G, 1.18.
To U7A G9A U10A U11A C12A C13U belongs 1.32.
U7A G9A U10A U11A C12A C13A: the “aptazyme ON/OFF ratio” value turned out to be 1.41.
To U7A G9A U10A U11A C12A C13G belongs 1.13.
For U7A C12U C13U the value was 1.38.
Consider U7A C12U C13A, for which the “aptazyme ON/OFF ratio” value was 1.29.
To U7A C12U C13G belongs 1.16.
As for U7A G9A U10C U11A, the “aptazyme ON/OFF ratio” value was 1.27.
To U7A G9A U10C U11C belongs 1.01; to U7A G9A U10C U11G, 1.31; to U7A G9A U10A U11C C12U, 1.1.
For U7A G9A U10A U11C C12G the value was 1.19.
For U7A G9A U10A U11C C12A the value was 1.16.
On to U7A G9A U10A U11G C12A C13G, for which the “aptazyme ON/OFF ratio” value was determined as 1.22.
Take U7A G9A U10A U11G C12A C13A: the “aptazyme ON/OFF ratio” value amounted to 1.16.
For U7A G9A U10A U11G C12A C13U the value was 1.09; for U7A G9A C12U C13U, 1.21.
Regarding U7A G9A C12U C13A, the “aptazyme ON/OFF ratio” value is 1.04.
As to U7A G9A C12U C13G, the “aptazyme ON/OFF ratio” value is 1.17.
To U7A G9A U10G U11C belongs 1.06.
In the case of U7A G9A U10G U11A, the “aptazyme ON/OFF ratio” value was 1.06.
For U7A G9A U10G U11G the value was 1.08; for U7A C12U, 1.48; for U7A C12G, 1.44.
Take U7A C12A: the “aptazyme ON/OFF ratio” value was 1.54.
For U7A G9A U10G U11A C12U the value was 1.05; for U7A G9A U10G U11A C12A, 1.17; for U7A G9A U10G U11A C12G, 1.12.
U7A G9A U11G C12U C13A: the “aptazyme ON/OFF ratio” value stood at 1.34.
As for U7A G9A U11G C12U C13G, the “aptazyme ON/OFF ratio” value came out at 1.2.
To U7A G9A U11G C12U C13U belongs 1.27; to U7A G9A U10C C12U, 1.26; to U7A G9A U10C C12A, 1.43.
For U7A G9A U10C C12G, the “aptazyme ON/OFF ratio” value worked out at 1.34.
For U7A G9A U10A C12A C13G, the “aptazyme ON/OFF ratio” value was determined as 1.07.
As to U7A G9A U10A C12A C13A, the “aptazyme ON/OFF ratio” value was 1.1.
For the variant U7A G9A U10A C12A C13U, the “aptazyme ON/OFF ratio” value was 1.29.
Take U7A G9A C12G C13A: the “aptazyme ON/OFF ratio” value was determined as 1.12.
